# Experimental data published in the supplement of paper PMC9170038.
# Test system: K4 kissing-loop RNA reporter
# Assay: apparent KD of K4 kissing-loop reporter; higher = weaker reporter binding
# Conditions: Eterna round: R107; input ligand: FMN 200 uM
# Procedure: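 RNA-MaP round R107: designed RNA switches with theophylline, tryptophan, arginine or FMN aptamers are transcribed on-chip within common flanks. They are titrated with a labelled K4 kissing-loop RNA reporter in RNA-MaP buffer (100 mM Tris pH 7.5, 80 mM KCl, 4 mM MgCl2), without ligand or with the indicated ligand. Median apparent KD per design.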
# 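Note: bound reporter read as fluorescence of individual clusters on recovered sequencing chips by microscopy, with normalized cluster intensities fitted with a binding model.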
row,Sequence,apparent KD of K4 kissing-loop reporter
1,UGGAGUUGACGAAAAGUCAACUCCCGAGAAGGAGCGGACGAAAGUCCAGGUAGGUCGCUCGCUACCAGUGAUGUUGGUACUUUAA,147 nM
2,AUCGUUGUCUGAGGAUAUCGGUUAACUGUAGUGAUGUUACAGAAAAUUCAUAUUAUAUUUUCUAUUCGAGAAGGCAGACUACGUA [JR_Nu3_ExcFMNB_Sub019],203 nM
3,CGUUGGAGUGAUGUUCCAGGUUGUACGGAUACCAGCCAAGCCAGCGGCCCUUGGCAGCCGACUAUUGCAGUGAUGUUGUGAUGCC [Same State Theophylline A GF 3],715 nM
4,AUUCAGAUCUGAAGGAGCGCGUUAAGUCAAUGCUUCAUAGAGCAGUGAUGUUGCUCUGAAACGCAGGUAGGUCGCAGAUCUGACC [Arg B SS t17],295 nM
5,AUCACAGUGAUGUUGUGAUAUGAUUCAGAUACCAGACUAGUGCUAGUCCCUUGGCAGCUGAACUCAGCAGCACCACUAGCACUCU [Theo A Ex t6],157 nM
6,GCUAGCAUGGCAGGAUAUAGCUAUAGGAGUGAUGUUCCUUGGUAGGUGAGUGAUGUUCACUACCAACUAGAAGGGCCAUGCUAGC,148 nM
7,AGGUCACCAGGAAGGAGCGCCCUGACAGGUUGCUGCCGUGGGCAGUGAUGUUGCUCAGUCCGGCAGGUAGGUCGCCUGGUGACCU,139 nM
8,ACACGUGUGGCAGGAUAUCGGGCUGUGGAUCGGCUGGUUACUUAUUCUCGACCAGUGAUGUUGGUACGAGAAGGGCUACCCAGAA [Cetebera],145 nM
9,AAGCAGUCACUCGAAACCAUCGAAGAUGGACGAGGACCGGUACGGCCGCCACUCGGAGUGAUGUUCCGAAGACUGCAAAAUAAAA,373 nM
10,UGCAGUGAUGUUGCUAUUUGUCUUGAUUAACGAGGACCGGUACGGCCGCCACUCGAUUUCUCUCUAAUCGGGUAUGUUGUUUAGU [#20 K4 Tryptophan A Exclusion],154 nM
11,UAAGUAAGGGAUGAUACCAGAGAGUGAUGUUCUCAAGCGCUAUAGGAUAGCCUUAUCCACCUCCCUUGGCAGCAUACCCACUGGG [theeternabot_exclusion_KL_Theo_B_13],333 nM
12,UCCUGCAAUCAGCCACGAAAGUGGAUGGAUACCAGAGUCGAAAGACUCCCUUGGCAGCCAGUGAUGUUGGAAGCAGGUAAAUAAA,583 nM
13,UGUGUUGUUUUGAUGUUUGGUGUUGCAUGGCAGGAUAUCGUAGAGGCGAGAAGGGCUUUUGUGCGGUAUGAGUGAUGUUUGUAGG [iihymullin],509 nM
14,CGAGUGAUGUUCGUUCGUUUAUUUUUUUGACAGGAUAUGCGGAAACGCAGAAGGGUCACCUUUGAGUUAAAAGAAUUUACGUUAU [Ex FMN A 25],460 nM
15,AGAUGUCCCUGGGAUACCAGUCGGAGUCUCAGGGCUCGGAGUGAUGUUCUGGGAUGUUUCGGCCCUUGGCAGCCCUGGGACUCCC [#2 Exclusion - Theophylline B Attempt #26 (HarryS)],573 nM
16,AGUCCACUCUAAAGAGUGGACCUAAGGGAUACCAGUGAUGUUGGUCACCCUUGGCAGCCCUCUGUCAUCGAUAAAGAUGGCAGCA,132 nM
17,GGAUAGGAUAGAGGAUAUGGUAUAUGCAAGAAUAACUUAUCGUGUAAAUCCAUAGGGAGUGAUGUUCCAGAAGGCUGUCCUAUCG [MatMod 11 - Jieux - Exclusion - FMN B],921 nM
18,GCUAUGGUUGGAAGGAGCGUUUAAUUACUAAUAAGAGUGAUGUUCGAUAGUAGGUAAUUGUAGCAGGUAGGUCGCCAACUAUAGC [KL-Arg B25],215 nM
19,CGAGUGAUGUUCGUUCGUUUAUUUCGUUGACAGGAUAUGCGGAAACGCAGAAGGGUCACCUUUGAGUUAACGGAAUUAACGUUAU [Ex FMN A 28],561 nM
20,UGUCAUUGGUCGGCCGCCACUAGACGGACAUAAGUCUGUCAAUAAAGAGUGAUGUUCUUAAAUAAUAGGACCGGGACCGAUGACU [TrypBS 28 #SwitchBubble #StaticStem],527 nM
21,UGUACCGAGUCAGGAUAUGGCGUCGAAAGACGAAAUGGAGUGAUGUUCCUUAUCUGCGAAAGCAGUCCAGAAGGGACUUGGUACU [FmnBS 27 #SwitchBubble #StaticStem #DoubleMagnetSystem],134 nM
22,GGAUAGGACAGAGGAUAUGGUAGUGAUGUUACCAAACUGGUUAUCAAUGUUAGAAAAUUGACAAAUCCAGAAGGCUGUCCUAUCG [KL-XFMN-B14],198 nM

row,Sequence,apparent KD of K4 kissing-loop reporter
1,AACCUGACGACGAGUGAUGUUCGAUGGGAAGGAGCGCGAAGAAAUGCAGGUAGGUCGCCCUAAGAGAGUGUAACGUCAGGAUUAU [1.)],364 nM
2,GGGAGUAGUGCGGCCGCCACUGUGAAAGAAGAAGAAUAUAGUGAUGUUAUAUAGGAAAUAAAGAAUAGGACCGGGCAUUAGAUUU [SSTRyptB.L],282 nM
3,GGAUAGGAUAGAGGAUAUGGGCUAGGCAAGGAUAACUUGUCUAGCAAAUCCAUGAGGAGUGAUGUUCCAGAAGGCUGUCCUAUCG [MatMod 1 - Jieux - Exclusion - FMN B],733 nM
4,GCAGAACGCAGUGAUGUUGCGAAAUCGGAAGGAGCGCGUGAAAACGCAGGUAGGUCGCCGACACAGGGAUUAUAUCCCUGUUUGC [Arginine A K4 17],178 nM
5,CCAUCGCUAUUCGAUACCAGUCUUCGUAGGAAACUACGUCUGCAAAGGAGUGAUGUUCCAGACCCUUGGCAGCGAAUAGUGAUGG [Theophylline B K4 4],771 nM
6,GUUACGCAUGGAAGGAGCGCGAAAAUUAAAUGUGAGUGAUGUUCACAAAUAAAUUAAAUAACGCAGGUAGGUCGCCAUGUGUAAC [Ex Arginine B K4 3],80.3 nM
7,GGAGGGAUCUCGGCCGCCACUCAUAAGAAAUGGGCCUCAGAAAUAUAGUGAUGUUAUAUAAAGAAGAGGACCGGGAGAAAGAAGG [ExTryptoB.D],197 nM
8,UGUCAUUGGUCUGAUACCAGUUGAUAAACUGGAGUGAUGUUCCAAUCGAGAUAACUCGACAACCCUUGGCAGCAGACCGAUGACU [TheoBS 15 #SwitchBubble 13 #StaticStem],182 nM
9,AAAGGCAAAGCCCGAGUGAUGUUCGACGAUACCAGCCUCGAUAGAGGCCCUUGGCAGCGUAAAUGAUCACAAAGCCAAGGAAUAA [#OpenEnded 2 #StaticStem],310 nM
10,GCCGUACGCAUGGAUACCAGCUAGACCGAGUGAUGUUCAGGUCUGAAUGCCGGUAUCAAGAGCCCUUGGCAGCCAUGCGUACGGC,382 nM
11,UGAUACCAGACGGCCGCCACUCCUGCAGUCAAAGACUGCUAGGAAAUAUUCGUCCAGUGAUGUUGGAGGACCGGGUCUGGUAUCU [TrypBX 10 #SwitchBubble #Palindromic #StaticStem],791 nM
12,UGUCAUGGAAACAUGAACGUUGAUGUUCGACGAGGACCGGUACGGCCGCCACUCGAGUAAUAGUCAGUGAUGUUGACUUGUUUAA [KL-SSTryp-A form1 sub4],49.4 nM
13,AAUAAAAUCACGGCCGCCACUGAUGUUAAUAUUAGCAGUGAUGUUGCUAUGUCGUUUUUAUUUAACAGGACCGGGUGAAUAUUUA [JR_ExcTryptoB_Sub013],183 nM
14,UUUCUACCGGGAAGGAGCGUGAAUGAUAAUGGAUAUAGUGAUGUUAUAUAUACGAACGAAUCGCAGGUAGGUCGCCCGGAUCCCU [SSArgB.V],492 nM
15,AUUUGCUAGAAAGGAUAUAUUAGCUUGGUCACCGCGUCCGAUGGUUAAACUUCGUGAGUGAUGUUCAUAGAAGGUUCAGCCUCGA [theeternabot_exclusion_KL_FMN_B_20],155 nM
16,CUACUGAGUGAUGUUCAACAUAAUGUCGAUACCAGCACAUUUGCCUGCCCUUGGCAGCGACGCACCAGGACCUGAGAGUACUGGU [theeternabot_sameState_KL_Theo_A_13],567 nM
17,CCAUCGCUAUUCGAUACCAGCUCCUUAGUGAUGUUGAGGUUUUACCCACUGUAGGUGGGAAGCCCUUGGCAGCGAAUAGUGAUGG [Theophylline B K4 29],523 nM
18,CUUCGUAAAGGCCCAGUGAUGUUGGGCACUCGAGGACCGGUACGGCCGCCACUCGCUCCCUAAGUCGCGUGCGUGGGCCACCGCC [Anala],115 nM
19,UGACUGGACUGAAGGAGCGCUUAACUCCUAGUGAUGUUAGGGAAACGAGACAAAGUCUCGAAGCAGGUAGGUCGCAGUCUAGUCU,216 nM
20,AAAAUAAAAGGUCACCCAGUGAUGUUGGAAGGAGCGUGCGAAAGCACAGGUAGGUCGCCAACCUAAAAGUGACCAGGGAAACCCA [#SwitchBubble 7 #K4Early],594 nM
21,UCACUUAAAAGAAAUAGAAAUUCUAGAGAUACCAGCGACACUCUUCGCCCUUGGCAGCUCAAGUGGGACCCAGUGAUGUUGGGCG [Xeceteza],426 nM
22,CUGACGCUGAUACGGUGGCCGGUGGUCGUGCGAGGACCGGUACGGCCGCCACUCGCAUGAGUGAUGUUCAUGUGUCGUCGUCGUC [#05 K4 Tryptophan A Exclusion],116 nM

# Same assay, conditions: Eterna round: R107; input ligand: arginine 13.2 mM
row,Sequence,apparent KD of K4 kissing-loop reporter
1,UGGAGUUGACGAAAAGUCAACUCCCGAGAAGGAGCGGACGAAAGUCCAGGUAGGUCGCUCGCUACCAGUGAUGUUGGUACUUUAA,189 nM
2,AUCGUUGUCUGAGGAUAUCGGUUAACUGUAGUGAUGUUACAGAAAAUUCAUAUUAUAUUUUCUAUUCGAGAAGGCAGACUACGUA [JR_Nu3_ExcFMNB_Sub019],141 nM
3,CGUUGGAGUGAUGUUCCAGGUUGUACGGAUACCAGCCAAGCCAGCGGCCCUUGGCAGCCGACUAUUGCAGUGAUGUUGUGAUGCC [Same State Theophylline A GF 3],539 nM
4,AUUCAGAUCUGAAGGAGCGCGUUAAGUCAAUGCUUCAUAGAGCAGUGAUGUUGCUCUGAAACGCAGGUAGGUCGCAGAUCUGACC [Arg B SS t17],250 nM
5,AUCACAGUGAUGUUGUGAUAUGAUUCAGAUACCAGACUAGUGCUAGUCCCUUGGCAGCUGAACUCAGCAGCACCACUAGCACUCU [Theo A Ex t6],132 nM
6,GCUAGCAUGGCAGGAUAUAGCUAUAGGAGUGAUGUUCCUUGGUAGGUGAGUGAUGUUCACUACCAACUAGAAGGGCCAUGCUAGC,116 nM
7,AGGUCACCAGGAAGGAGCGCCCUGACAGGUUGCUGCCGUGGGCAGUGAUGUUGCUCAGUCCGGCAGGUAGGUCGCCUGGUGACCU,158 nM
8,ACACGUGUGGCAGGAUAUCGGGCUGUGGAUCGGCUGGUUACUUAUUCUCGACCAGUGAUGUUGGUACGAGAAGGGCUACCCAGAA [Cetebera],124 nM
9,AAGCAGUCACUCGAAACCAUCGAAGAUGGACGAGGACCGGUACGGCCGCCACUCGGAGUGAUGUUCCGAAGACUGCAAAAUAAAA,374 nM
10,UGCAGUGAUGUUGCUAUUUGUCUUGAUUAACGAGGACCGGUACGGCCGCCACUCGAUUUCUCUCUAAUCGGGUAUGUUGUUUAGU [#20 K4 Tryptophan A Exclusion],200 nM
11,UAAGUAAGGGAUGAUACCAGAGAGUGAUGUUCUCAAGCGCUAUAGGAUAGCCUUAUCCACCUCCCUUGGCAGCAUACCCACUGGG [theeternabot_exclusion_KL_Theo_B_13],311 nM
